This is an account of results in article PMC8786865.

What is called Kd is the constant that tells how readily two partners part at equilibrium.

For the assay, the target named is SARS-CoV-2 spike protein receptor-binding domain (RBD) (SARS-CoV-2) (UniProt P0DTC2). Nature of the assay: SPR. (In general: SPR reads the build-up and loss of mass on a sensor chip optically.)

With CR3022, the dissociation constant (Kd) is 11 nM. This lies in the double-digit nanomolar range.
